Test results from PMC3950679.
Where a chain is given by its changes, count along the chain named.

Experiments:
Cid1 WT = biological target: T1, Cid1 WT (Schizosaccharomyces pombe, UniProt O13833 40-377); assay: EMSA
T1 sequence: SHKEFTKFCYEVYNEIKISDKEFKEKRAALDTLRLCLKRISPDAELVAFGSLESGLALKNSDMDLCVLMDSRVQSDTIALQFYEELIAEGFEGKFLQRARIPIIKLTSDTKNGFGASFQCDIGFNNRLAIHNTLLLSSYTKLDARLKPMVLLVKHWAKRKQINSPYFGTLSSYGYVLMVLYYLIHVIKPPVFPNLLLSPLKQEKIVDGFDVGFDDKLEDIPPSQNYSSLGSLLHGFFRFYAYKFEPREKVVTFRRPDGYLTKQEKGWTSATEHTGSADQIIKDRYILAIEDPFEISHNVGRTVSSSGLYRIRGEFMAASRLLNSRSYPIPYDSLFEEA

Cid1 D160A = biological target: T2, Cid1 D160A (Schizosaccharomyces pombe, UniProt O13833 40-377, D160A); assay: EMSA
T2 sequence: T1 sequence with D121A

UUUUUUUUUUUUUUU (ssRNA) [U15]
Kd (Cid1 WT): ~1000 nM
Kd (Cid1 D160A): ~1000 nM
